Test results: paper PMC10561363

Target: glutathione S-transferase (GST) fused to the C-terminus of SERT
Test: GST pull-down, immunoblot densitometry
Details: whole-cell lysates of transfected HEK-293 cells; n = 3; parent: est. 3.1; read off a plot

Work on “YFP-tagged human MAD2, wild type (from UniProt Q13257) R133A” yielded a response of 2.1 a.u.
